T1: recombinant His6-tagged extracellular domain of human Clec4C (C-type lectin domain family 4, member C) (human, UniProt Q8WTT0 44-213)
T1 construct: Same antigen for immunisation, panning and ELISA; also called His-Clec4C(EC); pMET7-SIgK-His-Clec4C(EC)
T1 sequence: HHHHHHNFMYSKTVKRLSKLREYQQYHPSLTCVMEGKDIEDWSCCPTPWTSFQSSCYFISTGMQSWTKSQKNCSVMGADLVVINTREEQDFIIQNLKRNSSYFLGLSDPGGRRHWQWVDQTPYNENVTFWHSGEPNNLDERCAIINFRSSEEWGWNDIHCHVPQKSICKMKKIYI


Key:
[1] = molecular target: T1, recombinant His6-tagged extracellular …; assay: ELISA, antigen-coated vs uncoated blocked wells
From the text: (§1) In total, 190 colonies from rounds 1 and 2 were randomly selected and analyzed by ELISA for the presence of antigen-specific VHH in their periplasmic extracts (ELISA using crude periplasmic extracts from TG1 cultures including soluble VHH). The antigen used for ELISA screening was the same as the one used for immunization, using uncoated blocked wells as negative control.

[2] = molecular target: T1, recombinant His6-tagged extracellular …; assay: ELISA, TG1 periplasmic extract on coated antigen
From the text: as §1

Row | ELISA ratio coated/uncoated [1] | ELISA coated [2] | Binder
1 | 7.83 | 3.85 | 1CL48 (VHH, pMECS VHH-HA-His6; TG1 periplasmic extract) VHH: QVQLQESGGGLVQPGGSLRLSCVGSGSTFRHHAMAWFRQTAGKEREFVSAINNHGTKTRYSDSVRGRFTISRDNDENMVYLQMDNLRPEDTAVYSCAAGPLVDYLETVPVVYTYWGQGTQVTVSS
2 | 15.7 | 1.81 | 2CL8 (VHH, pMECS VHH-HA-His6; TG1 periplasmic extract) VHH: QVQLQESGGGLVQPGGSLKLSCAGSGSTFRHHALAWFRQTAEKEREFVSAINDHGTKTRYSDSVRGRFTISRDNDGNMVYLQMDNLRPEDTAVYSCAAGPLVDYLETVPVVYTYWGQGTQVTVSS
3 | 11.1 | 3.79 | 1CL21 (VHH, pMECS VHH-HA-His6; TG1 periplasmic extract) VHH: QVQLQESGGGLVRPGGSLRLSCVGSGSTFRHHAMAWFRQTTGKEREFVSAINDHGTKTRYSDSVRGRFTISRDNDENMVYLQMDNLRPEDTAVYSCAAGPLVDYLETVPVVYTYWGQGTQVTVSS
4 | 31.3 | 2.8 | 2CL4 (VHH, pMECS VHH-HA-His6; TG1 periplasmic extract) VHH: QVQLQESGGGLVQPGGSLRISCAGSGSTFRHHAMAWFRQTAGKEREFVSAINDHGTKTRYSDSVRGRFTISRDNDENMVYLQMDNLRSEDTANYTCAAGPLVDYLETVPVVYTYWGQGTQVTVSS
5 | 6.23 | 3.01 | 1CL82 (VHH, pMECS VHH-HA-His6; TG1 periplasmic extract) VHH: QVQLQESGGGSVQAGDSLRLSCVAPGREISSPAMGWFRQAPGKEREFVATINWSSGATLTADSVKGRFTIFKDVEKNTVYLQMNSLRPEDTAVYSCAAGATGVFRIARAYSYWGQGTQVTVSS
6 | 17 | 1.88 | 1CL54 (VHH, pMECS VHH-HA-His6; TG1 periplasmic extract) VHH: QVQLQESGGGLAQAGASLRLSCAGSGNNFEHYAVAWFRQDAPGKERDFVAAIRDYGDRTRYDDSVKGRFTISRDNAKSMVYLEMNNLKPKDAAVYYCAAGPLNDYLEVTPLVYTYWGQGTQVTVSS
7 | 7.07 | 1.65 | 2CL52 (VHH, pMECS VHH-HA-His6; TG1 periplasmic extract) VHH: QVQLQESGGGLAQAGASLRLSCAGSGNNFEHYAVAWFRQEAPGKERDFVAAIRDYGDRTRYADSVKGRFTISRDNAKSMVYLEMNNLKPEDTAVYYCTAGPLNDYLEVTPLVYTYWGQGTQVTVSS
8 | 12.1 | 2.64 | 2CL43 (VHH, pMECS VHH-HA-His6; TG1 periplasmic extract) VHH: QVQLQESGGGTVQPGESLRLSCEVSTDTFSSLAMAWFRQATGKDREFVAAISWSGASTVYGDSVKGRFTMTRDHPKKMVYLQMDNLKPEDTAVYYCAGDLDGRTWHGDDLEYDYWGQGTQVTVSS
9 | 9.74 | 2.68 | 2CL82 (VHH, pMECS VHH-HA-His6; TG1 periplasmic extract) VHH: QVQLQESGGGLVQPGGSLRLSCEVSTDTFSSLAMAWFRQATGKEREFVAAISWSGASTVYGDSVKGRFTMTRDHPKKMVYLQMDNLKPEDTAVYYCAGDLDGRTWHGDDLEYDYWGQGTQVTVSS
10 | 4.36 | 3.74 | 1CL2 (VHH, pMECS VHH-HA-His6; TG1 periplasmic extract) VHH: QVQLQESGGGLVQAGDSLRLSCAASGDTFSMYAMGWFRQAPGKEREFVAAISRSGGSTDYRDSVKGRFTISRDNDLNAGYLQMNSLKPEDTAVYYCALRLTFSTTTAYTGELQYPYWGQGTQVTVSS
11 | 4.66 | 2.24 | 2CL58 (VHH, pMECS VHH-HA-His6; TG1 periplasmic extract) VHH: QVQLQESGGGLVQAGDSLRLSCAASGDTFSMYAMGWFRQAPGKEREFVAAISRSGSSTNYRDSVKGRFTISRDNDLNAGYLQMNSLKPEDTAVYYCALRLTFSTTTTYTGELQYPYWGQGTQVTVSS
12 | 4.93 | 2.43 | 2CL73 (VHH, pMECS VHH-HA-His6; TG1 periplasmic extract) VHH: QVQLQESGGGLVQAGDSLRLSCAASGNTFSMYAMGWFRQAPGKEREFVAAISRSGGSTNYRDSVKGRFTISRDNDLNAGYLQMNNLKPEDTAVYYCALRLTFSTTDAYTGKLQYPYWGQGTQVTVSS
13 | 9.9 | 3.22 | 1CL32 (VHH, pMECS VHH-HA-His6; TG1 periplasmic extract) VHH: QVQLQESGGGLVQAGDSLRLSCAASGDTFSMYTMGWFRQAPGKEREFVAAISRSGGSTNYRDSVKGRFTISRDNDLNAGYLQMNSLKPEDTAVYYCALRLTFSTTTAYTGELQYPYWGQGTQVTVSS
14 | 21.5 | 3.63 | 2CL72 (VHH, pMECS VHH-HA-His6; TG1 periplasmic extract) VHH: QVQLQESGGGLVQPGGSLKLSCAASGSTFRHHAMAWFRQTPGKEREFVSAINDHGDRTKYLDSVRGRFTISRDNTDNMVYLQMSDLRPEDTAVYSCAAGPLVDYLETTPLVYTYWGQGTQVTVSS
15 | 11.5 | 1.62 | 2CL87 (VHH, pMECS VHH-HA-His6; TG1 periplasmic extract) VHH: QVQLQESGGGLVQPGGSLRLSCAGSGSTFRHHAMAWFRQTPGKEREFVSAINDHGDRTKYTDSVRGRFTISRDNTDNMVYLQMSDLRPEDTAVYSCAAGPLVDYLETTPLVYTYWGQGTQVTVSS
16 | 7.54 | 4 | 2CL90 (VHH, pMECS VHH-HA-His6; TG1 periplasmic extract) VHH: QVQLQESGGGLVQAGGSLRLSCAASGSTFRHHAMAWFRQTPGKGREFVSAINDHGDRTKYLDSVRGRFTISRDNTDNMVYLQMSDLRPEDTAVYSCAAGPLVDYLETTPLVYTYWGQGTQVTVSS
17 | 23.2 | 4 | 2CL95 (VHH, pMECS VHH-HA-His6; TG1 periplasmic extract) VHH: QVQLQESGGGLVQPGGSLKLSCAGSGSTFKHHAMAWFRHTPGKEREFVSAINDHGDRTKYSDSVRGRFTIARDNTDNMVYLQMDDLLPEDTANYTCAAGPLVDYLETTPLVYTYWGQGTQVTVSS
18 | 12.2 | 4 | 2CL88 (VHH, pMECS VHH-HA-His6; TG1 periplasmic extract) VHH: QVQLQESGGGLVQPGGSLKLSCTGSGSTFRHHAMAWFRQTPGKEREFVAAINDHGDRTKYLDSVRGRFTISRDNTDNMVYLQMSDLRPEDTANYSCAAGPLVDYLETTPLVYTYWGQGTQVTVSS
19 | 20.9 | 4 | 2CL41 (VHH, pMECS VHH-HA-His6; TG1 periplasmic extract) VHH: QVQLQESGGGLVQAGGSLRLSCAASGSTFRHHAMAWFRQTPGKEREFVSAINDHGDRTKYLDSVRGRFTISRDNTDNMVYLQMSDLRTEDTAVYTCAAGPLVDYLETTPLVYTYWGQGTQVTVSS
20 | 32.7 | 3.75 | 2CL78 (VHH, pMECS VHH-HA-His6; TG1 periplasmic extract) VHH: QVQLQESGGGVVQPGGSLKLSCAASGSTFRHHAMAWFRQTPGKEREFVSAINDHGDRTKYLDSVRGRFTISRDDTDNMVYLQMSDLRTEDTAVYTCAAGPLVDYLETTPLVYTYWGQGTQVTVSS
21 | 5.81 | 4 | 1CL25 (VHH, pMECS VHH-HA-His6; TG1 periplasmic extract) VHH: QVQLQESGGGLVQPGGSLRLSCAASGSTFRHHAMAWFRQTPGKEREFVSAINDHGDRTKYLDSVRGRFTISRDNTDNMVYLLMSDLRPEDTAVYSCAAGPLVDYLETTPLVYTYWGQGTQVTVSS
